The values that follow come from patent US20260125472A1 (HEFEI TG IMMUNOPHARMA, published 2026).

The target in experiment [1] is T1, PDL1 on A-375 melanoma cells, HCT-15 colorectal cancer cells and A549 lung cancer cells (UniProt Q9NZQ7 19-290, limits assumed).
T1 construct: whole, on cells
Briefly: flow cytometry, A549 cells, MFI [panel B]. The method in brief:
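Cells were blocked with goat serum at 4° C for 30 min, then incubated with serially diluted bispecific antibodies or hIgG1LALA control at 4° C for 30 min. Bound antibody was detected with Alexa-647 anti-human IgG (4° C, 30 min, dark) and read by flow cytometry.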

Experiment [2] has as its target T2, PDL1 protein (UniProt Q9NZQ7 19-238).
T2 construct: Bought recombinant protein
Put plainly: ELISA, coated PDL1 protein, OD450 [panel A]. In outline:
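PDL1 protein coated at 2 μg/ml overnight at 4 °C, blocked with PBS/10% BSA; serially diluted bispecific antibodies or control IgG1LALA bound 1 h at 37 °C. Detection with HRP anti-human Fab secondary antibody and TMB for 3 min, stopped with sulfuric acid, absorbance at 450 nm.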
(In general: ELISA stands for enzyme-linked immunosorbent assay.)

The target of experiment [3] is T1, PDL1 on A-375 melanoma cells, HCT-15 …. Put plainly: flow cytometry, A-375 cells, binding ratio % [panel A]. As for the experimental part:
(2) The tumor cells were diluted to 2×10⁶/ml with PBS and added to a 1.5 ml EP tube at a volume of 100 μl/tube, and goat serum was added thereto at 10 μl/tube. The cells were blocked at 4° C. for 30 min. The serially diluted bispecific antibodies, Cross3×Trop2, Cross303×Trop2, Cross307×Trop2, Cross308×Trop2, Cross309×Trop2, Cross310×Trop2, Cross311×Trop2, Cross312×Trop2, Cross313×Trop2, Cross314×Trop2, Cross316×Trop2, Cross317×Trop2, Cross318×Trop2, Cross323×Trop2, Cross325×Trop2, Cross326×Trop2, and Cross3×PDL1, Cross303×PDL1, Cross307×PDL1, Cross308×PDL1, Cross309×PDL1, Cross310×PDL1, Cross311×PDL1, Cross312×PDL1, Cross313×PDL1, Cross314×PDL1, Cross316×PDL1, Cross317×PDL1, Cross318×PDL1, Cross323×PDL1, Cross325×PDL1, Cross326×PDL1, and control hIgG1LALA (purchased from Bio-Tech) were added and incubated at 4° C. for 30 min. 1 ml of PBS was added to the EP tube, followed by centrifugation at 3500 rpm for 5 min at 4° C. The supernatant was discarded, and the cells were washed again with PBS. After centrifugation, the supernatant was completely discarded, and the cells were resuspended with PBS at 100 μl/tube. Alexa-647-labeled goat anti-human IgG secondary antibody (purchased from Jackson lab) was added at 1 μl/tube and incubated at 4° C. in the dark for 30 min. The cells were washed twice with PBS, and the supernatant was completely discarded after centrifugation. The cells were resuspended with PBS at 200 μl/tube and assay was performed using the flow cytometry.
(In general: A flow cytometer gives signals particle by particle.)

T1 sequence (Q9NZQ7 19-290 limits assumed): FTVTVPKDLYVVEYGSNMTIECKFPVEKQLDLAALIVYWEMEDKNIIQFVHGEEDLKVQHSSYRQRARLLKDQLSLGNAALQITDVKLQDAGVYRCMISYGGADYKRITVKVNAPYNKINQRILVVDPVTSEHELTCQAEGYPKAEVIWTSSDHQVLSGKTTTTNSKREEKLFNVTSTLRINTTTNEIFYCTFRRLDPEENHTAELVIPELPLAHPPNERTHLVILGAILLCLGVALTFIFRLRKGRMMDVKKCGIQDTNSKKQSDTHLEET
T2 sequence (Q9NZQ7 19-238 limits assumed): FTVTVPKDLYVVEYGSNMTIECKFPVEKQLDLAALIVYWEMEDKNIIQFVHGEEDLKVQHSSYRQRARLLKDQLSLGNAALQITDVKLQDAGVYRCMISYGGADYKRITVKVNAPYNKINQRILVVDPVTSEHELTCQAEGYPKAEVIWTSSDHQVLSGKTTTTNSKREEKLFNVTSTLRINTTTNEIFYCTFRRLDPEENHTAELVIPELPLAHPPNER

B1: Cross309×PDL1 (bispecific antibody, human IgG1, kappa, L234A L235A)
scFv: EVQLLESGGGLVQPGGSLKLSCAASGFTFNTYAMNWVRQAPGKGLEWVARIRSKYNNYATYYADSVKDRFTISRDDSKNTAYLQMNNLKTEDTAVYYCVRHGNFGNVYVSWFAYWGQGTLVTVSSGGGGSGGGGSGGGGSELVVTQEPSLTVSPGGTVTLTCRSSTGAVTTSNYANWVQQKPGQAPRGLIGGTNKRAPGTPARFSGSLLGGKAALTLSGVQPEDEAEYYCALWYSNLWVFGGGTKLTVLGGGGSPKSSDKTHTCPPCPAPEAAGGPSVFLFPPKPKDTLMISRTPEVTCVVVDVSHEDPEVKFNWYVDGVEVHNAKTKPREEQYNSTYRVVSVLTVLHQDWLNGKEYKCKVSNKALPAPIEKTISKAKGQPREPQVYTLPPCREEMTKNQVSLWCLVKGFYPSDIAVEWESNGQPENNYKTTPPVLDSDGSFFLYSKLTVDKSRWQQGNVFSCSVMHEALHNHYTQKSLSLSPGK
heavy: QVQLVQSGAEVKKPGASVKVSCKASGYSFTGYYMHWVRQAPGQGLEWIGRINPYNGATTYSQNFKDRATMTVDTSISTAYMELSRLRSDDTAVYYCVPTGMGYFLMDYWGQGTLVTVSSASTKGPSVFPLAPSSKSTSGGTAALGCLVKDYFPEPVTVSWNSGALTSGVHTFPAVLQSSGLYSLSSVVTVPSSSLGTQTYICNVNHKPSNTKVDKKVEPKSCDKTHTCPPCPAPEAAGGPSVFLFPPKPKDTLMISRTPEVTCVVVDVSHEDPEVKFNWYVDGVEVHNAKTKPREEQYNSTYRVVSVLTVLHQDWLNGKEYKCKVSNKALPAPIEKTISKAKGQPREPQVCTLPPSREEMTKNQVSLSCAVKGFYPSDIAVEWESNGQPENNYKTTPPVLDSDGSFFLVSKLTVDKSRWQQGNVFSCSVMHEALHNHYTQKSLSLSPGK
light: DIQLTQSPSFLSASVGDRVTITCKASQDVGSAVVWYQQKPGKAPKLLIYWASTRHTGVPSRFSGSGSGTEFTLTISSLQPEDFATYFCQQFTSYPTFGQGTKLEIKRTVAAPSVFIFPPSDEQLKSGTASVVCLLNNFYPREAKVQWKVDNALQSGNSQESVTEQDSKDSTYSLSSTLTLSKADYEKHKVYACEVTHQGLSSPVTKSFNRGEC
In general, EC50 (read off the curve) refers to the concentration at which the effect is half-maximal. As for B1, the “EC50 (read off the curve)” value in experiment [1] is about 1 µg/mL; in experiment [2], about 0.2 µg/mL; in experiment [3], about 0.4 µg/mL.
